The record followed here is US20150051136A1 (US Dept. of Health and Human Services, published 2015).

The target in the assay is T1, sRAGE^CHO(N25T/N81T) (human, UniProt Q15109 26-340).
T1 construct: also called sRAGE (N25T/N81T); N25T/N81T mutant
In words: BIAcore SPR, sRAGE amine-coupled to CM5 chip, S100B as analyte, steady state model.

T1 sequence (Q15109 other isoform, or with tags, fused parts or gaps N25T N81T N25T N81T): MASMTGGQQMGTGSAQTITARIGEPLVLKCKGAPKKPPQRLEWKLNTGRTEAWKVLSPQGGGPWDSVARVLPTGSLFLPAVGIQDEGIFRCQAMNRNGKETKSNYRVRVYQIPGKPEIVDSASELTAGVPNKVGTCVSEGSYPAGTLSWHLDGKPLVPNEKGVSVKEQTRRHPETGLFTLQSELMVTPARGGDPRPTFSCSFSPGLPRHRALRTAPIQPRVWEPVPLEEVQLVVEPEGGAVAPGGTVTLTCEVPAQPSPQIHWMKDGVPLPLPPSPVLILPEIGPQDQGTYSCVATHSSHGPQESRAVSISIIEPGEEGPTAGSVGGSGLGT

B1: S100B (ligand)
chain: MSELEKAMVALIDVFHQYSGREGDKHKLKKSELKELINNELSHFLEEIKEQEVVDKVMETLDNDGDGECDFQEFMAFVAMVTTACHEFFEHE
In general, Kd refers to a measure of binding affinity in units of concentration. High values mean a looser complex, low ones a tighter complex. With B1, binding was put at a Kd of 13.6 nM.
